Measurements taken from patent US20160333065A1 (ACADEMISCH ZIEKENHUIS LEIDEN H O D N LUMC, published 2016).

target: T1, HLA-B8 (B*0801) (human); experiment: competition vs FLRGRAC(FI)GL on stripped B-LCL, FACS
T1 construct: HLA class I on acid-stripped EBV-transformed B cells (B-LCL)

Row | Binder | IC50 [nM]
1 | INLRRLLL [PRAME 260-267 INLRRLLL] | < 1000
2 | MINLRRLL [PRAME 259-266 MINLRRLL] | < 1000
3 | QMINLRRLLL [PRAME 258-267 QMINLRRLLL] | 1670

target: T2, HLA-B62 (B*1501) (human); experiment: cell competition vs YLGEFSC(FI)TY, stripped BSM B-LCL, FACS
T2 construct: Acid-stripped B-LCL

Row | Binder | IC50 [nM]
4 | LLRHVMNPL (also called start 316) [PRAME peptide LLRHVMNPL] | 2560
5 | VLYPVPLESY (also called start 439) [PRAME peptide VLYPVPLESY] | 1660
6 | LQHLIGLSNL (also called start 427) [PRAME peptide LQHLIGLSNL] | 2410
7 | GQHLHLETF (also called start 89) [PRAME peptide GQHLHLETF] | 2390
8 | ALYVDSLFF (also called start 300) [PRAME peptide ALYVDSLFF] | < 1000

target: T3, HLA-A1 (A*0101) (human); experiment: cell competition vs YLEPAC(FI)AKY, stripped CAA B-LCL, FACS
T3 construct: Acid-stripped B-LCL

Row | Binder | IC50 [nM]
9 | SLQCLQALY (also called start 294) [PRAME peptide SLQCLQALY] | 2000
10 | GTLHLERLAY (also called start 453) [PRAME peptide GTLHLERLAY] | 2000
11 | LSHIHASSY [PRAME peptide LSHIHASSY] | 1000

Continued, values first:

Row | IC50 [nM] | Binder
12 | > 1000 | CSQLTTLSFY (also called start 405) [PRAME peptide CSQLTTLSFY]
13 | 3000 | YISPEKEEQY (also called start 275) [PRAME peptide YISPEKEEQY]
14 | 1000 | FLSLQCLQALY (also called start 292) [PRAME peptide FLSLQCLQALY]

target: T4, HLA-B61 (B*4002) (human); experiment: cell competition vs GEFGGC(FI)GSV, stripped Swei007 B-LCL, FACS
T4 construct: Acid-stripped B-LCL

Row | Binder | IC50 [nM]
15 | DEALAIAAL (also called start 37) [PRAME peptide DEALAIAAL] | < 1000
16 | RELFPPLFMA (also called start 50) [PRAME peptide RELFPPLFMA] | < 1000

The remaining lines, values ahead:

Row | IC50 [nM] | Binder
17 | < 1000 | RELFPPLFM (also called start 50) [PRAME peptide RELFPPLFM]
18 | < 1000 | LETFKAVL (also called start 94) [PRAME peptide LETFKAVL]

target: T5, HLA-B60 (B*4001) (human); experiment: competition vs KESTC(FI)HLVL on stripped B-LCL, FACS
T5 construct: HLA class I on acid-stripped EBV-transformed B cells (B-LCL)

Row | Binder | IC50 [nM]
19 | DEALAIAAL [PRAME 37-45 DEALAIAAL] | 1550
20 | RELFPPLFM [PRAME 50-58 RELFPPLFM] | 1480
21 | KDEALAIAAL [PRAME 36-45 KDEALAIAAL] | 2910

target: T6, HLA-B8 (B*0801) (human); experiment: cell competition vs FLRGRAC(FI)GL, stripped Vavy B-LCL, FACS
T6 construct: Acid-stripped B-LCL

Row | Binder | IC50 [nM]
22 | MINLRRLL (also called start 259) [PRAME peptide MINLRRLL] | < 1000
23 | QMINLRRLLL (also called start 258) [PRAME peptide QMINLRRLLL] | 1670

Results, then the binder that gave them:

Row | IC50 [nM] | Binder
24 | < 1000 | YLHARLREL (also called start 462) [PRAME peptide YLHARLREL]
25 | < 1000 | INLRRLLL (also called start 260) [PRAME peptide INLRRLLL]

target: T7, HLA-A1 (A*0101) (human); experiment: cellular competition binding assay on acid-stripped B-LCL CAA, flow cytometry; competitor Fl-labeled reference peptide YLEPAC(Fl)AKY
T7 construct: MHC class I molecule on mild-acid-stripped EBV-transformed B cells (CAA)

Row | Binder | IC50 [nM]
26 | GTLHLERLAY [PRAME 453-462 GTLHLERLAY] | 2000
27 | LSNLTHVLY [PRAME 433-441 …] | < 1000

target: T8, HLA-A3 (A*0301) (human); experiment: cell competition vs KVFPC(FI)ALINK, stripped EKR B-LCL, FACS
T8 construct: Acid-stripped B-LCL

Row | Binder | IC50 [nM]
28 | CLPLGVLMK (also called start 80) [PRAME peptide CLPLGVLMK] | < 1000
29 | HLIGLSNLTH (also called start 429) [PRAME peptide HLIGLSNLTH] | 4000
30 | SMSVWTSPR (also called PRA16-24; start 16) [PRAME peptide SMSVWTSPR] | < 1000

Continued, values first:

Row | IC50 [nM] | Binder
31 | < 1000 | CTWKLPTLAK (also called start 242) [PRAME peptide CTWKLPTLAK]
32 | 1000 | RLAYLHARLR (also called start 459) [PRAME peptide RLAYLHARLR]

target: T9, HLA-B35 (B*3501) (human); experiment: cell competition vs NPDIVC(FI)YQY, stripped BVR B-LCL, FACS
T9 construct: Acid-stripped B-LCL

Row | Binder | IC50 [nM]
33 | LPTLAKFSPY (also called start 246) [PRAME peptide LPTLAKFSPY] | < 1000
34 | GACDELFSY (also called start 186) [PRAME peptide GACDELFSY] | 2600
35 | SPYLGQMINL [PRAME peptide SPYLGQMINL] | 1980

Now from value to binder:

Row | IC50 [nM] | Binder
36 | < 1000 | LPRELFPPL (also called start 48) [PRAME peptide LPRELFPPL]
37 | < 1000 | FPPLFMAAF (also called start 53) [PRAME peptide FPPLFMAAF]
38 | < 1000 | EPILCPCFM (also called start 499) [PRAME peptide EPILCPCFM]
39 | 2830 | QPFIPVEVL (also called start 170) [PRAME peptide QPFIPVEVL]
40 | 2240 | IPVEVLVDL (also called start 173) [PRAME peptide IPVEVLVDL]
41 | 1580 | LPRELFPPLF (also called start 48) [PRAME peptide LPRELFPPLF]

target: T10, HLA-A3 (A*0301) (human); experiment: competition vs KVFPC(FI)ALINK on stripped B-LCL, FACS
T10 construct: HLA class I on acid-stripped EBV-transformed B cells (B-LCL)

Row | Binder | IC50 [nM]
42 | CTWKLPTLAK [PRAME 242-251 CTWKLPTLAK] | 700
43 | HLIGLSNLTH [PRAME 429-438 HLIGLSNLTH] | 4000
44 | SMSVWTSPR (also called PRA16-24; PRA(16-24)) [PRAME 16-24 SMSVWTSPR] | < 1000
45 | CLPLGVLMK [PRAME 80-88 CLPLGVLMK] | < 1000

target: T11, HLA-A1 (A*0101) (human); experiment: competition vs YLEPAC(FI)AKY on stripped B-LCL, FACS
T11 construct: HLA class I on acid-stripped EBV-transformed B cells (B-LCL)

Row | Binder | IC50 [nM]
46 | YISPEKEEQY [PRAME 275-284 YISPEKEEQY] | 3000
47 | CSQLTTLSFY [PRAME 405-414 CSQLTTLSFY] | < 1000
48 | FLSLQCLQALY [PRAME 292-302 FLSLQCLQALY] | 1000
49 | SLQCLQALY [PRAME 294-302 SLQCLQALY] | 2000
50 | LSHIHASSY [PRAME 267-275 LSHIHASSY] | 1000

target: T12, HLA-B62 (B*1501) (human); experiment: competition vs YLGEFSC(FI)TY on stripped B-LCL, FACS
T12 construct: HLA class I on acid-stripped EBV-transformed B cells (B-LCL)

Row | Binder | IC50 [nM]
51 | ALYVDSLFF [PRAME 300-308 ALYVDSLFF] | < 1000
52 | LQHLIGLSNL [PRAME 427-436 LQHLIGLSNL] | 2410
53 | LLRHVMNPL [PRAME 316-324 LLRHVMNPL] | 2560
54 | GQHLHLETF [PRAME 89-97 GQHLHLETF] | 2390

target: T13, HLA-B35 (B*3501) (human); experiment: competition vs NPDIVC(FI)YQY on stripped B-LCL, FACS
T13 construct: HLA class I on acid-stripped EBV-transformed B cells (B-LCL)

Row | Binder | IC50 [nM]
55 | LPRELFPPLF [PRAME 48-57 LPRELFPPLF] | 1580
56 | SPYLGQMINL [PRAME 253-262 SPYLGQMINL] | 1980
57 | LPTLAKFSPY [PRAME 246-255 LPTLAKFSPY] | 110

Second part, the binder after the results:

Row | IC50 [nM] | Binder
58 | 2600 | GACDELFSY [PRAME 186-194 GACDELFSY]
59 | < 1000 | FPPLFMAAF [PRAME 53-61 FPPLFMAAF]
60 | < 1000 | LPRELFPPL [PRAME 48-56 LPRELFPPL]

target: T14, HLA-B61 (B*4002) (human); experiment: competition vs GEFGGC(FI)GSV on stripped B-LCL, FACS
T14 construct: HLA class I on acid-stripped EBV-transformed B cells (B-LCL)

Row | Binder | IC50 [nM]
61 | RELFPPLFMA [PRAME 50-59 RELFPPLFMA] | < 1000
62 | LETFKAVL [PRAME 94-101 LETFKAVL] | < 1000
63 | DEALAIAAL [PRAME 37-45 DEALAIAAL] | < 1000
64 | RELFPPLFM [PRAME 50-58 RELFPPLFM] | < 1000

target: T15, HLA-B60 (B*4001) (human); experiment: cell competition vs KESTC(FI)HLVL, stripped DKB B-LCL, FACS
T15 construct: Acid-stripped B-LCL

Row | Binder | IC50 [nM]
65 | KDEALAIAAL (also called start 36) [PRAME peptide KDEALAIAAL] | 2910
66 | DEALAIAAL (also called start 37) [PRAME peptide DEALAIAAL] | 1550

Continued, values first:

Row | IC50 [nM] | Binder
67 | 1480 | RELFPPLFM (also called start 50) [PRAME peptide RELFPPLFM]
68 | < 1000 | YEDIHGTLHL (also called start 448) [PRAME peptide YEDIHGTLHL]
